Reference: the supplement of paper PMC10724198
± gives the standard deviation of the averaged measurements.

Test system: Saccharomyces cerevisiae
Experiment: protein stability index of tFT-peptide fusion (C-terminal peptide) (PSI (0-1 scale)); higher = more stable (slower turnover)
Settings: genetic background: wild type; temperature: 30 C
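Note: PSI is a weighted mean of sequencing reads over stability bins, variants kept only with over 10 reads, mCherry proximal and sfGFP distal, peptide attached via GGGS linker.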

Sequence	protein stability index
GRQLSTSRLRSS	0.674 ± 0.025
PSPPPHPIHPMA	0.754 ± 0.18
PLYPPLPTSLSS	0.769 ± 0.027
RHSPGPLLTPAP	0.712 ± 0.045
FLLVPSPPSFTH	0.715 ± 0.12
DACRLLGGRRCG	0.717 ± 0.07
LPPPFPWSPSGP	0.698 ± 0.066
PFPCPSLPPPFP	0.716 ± 0.022
RPPGPPPPAPFP	0.711 ± 0.015
RRGKGERSQFAP	0.647 ± 0.017
AGAGGGGAVVVG	0.637 ± 0.039
GVSAPRFPGALA	0.69 ± 0.01
CITLLDILFRPS	0.684 ± 0.019
LPCFPSLNRNPL	0.7397 ± 0.0015
PQVNSNQIRAPD	0.677 ± 0.021
TPLSDQLVPFGC	0.708 ± 0.082
RYKTESKRDIEK	0.696 ± 0.062
PFVSGWEKGRSF	0.757 ± 0.033
GTVSEGAMSVGF	0.809 ± 0.11
VLTPLWIANTFL	0.673 ± 0.057
CCPHMLLVLTNI	0.509 ± 0.011
HPSAVPHPPDIV	0.659 ± 0.046
IESASRSTTGGI	0.77 ± 0.14
SPTPPTAPPSPL	0.699 ± 0.015
RLGLVITKLGVY	0.541 ± 0.0081
DAGGGKLFGNSK	0.663 ± 0.019

Sequence	protein stability index
RRWCVDLAMSFA	0.646 ± 0.016
PGLQFPIWGVKG	0.71 ± 0.045
FSPPLGRFLLRH	0.707 ± 0.062
GVVSRGGRRLGV	0.7011 ± 0.0035
IVGAVMMGGRTM	0.68 ± 0.013
NACLRNPTTKGG	0.694 ± 0.086
VSSRHNCFRHGS	0.696 ± 0.039
LVWLGCGLGGLC	0.745 ± 0.054
EKRERKRDSGHR	0.685 ± 0.063
VALAPLRDVPSG	0.681 ± 0.043
PPHLCPTSLTTL	0.642 ± 0.026
VQLGLGPDSSRS	0.694 ± 0.019
LISNIFSFEWLW	0.622 ± 0.032
PAHPGRPPILGS	0.597 ± 0.036
SLSTSFSSRPPS	0.704 ± 0.089
RITRVRNKEQSK	0.692 ± 0.016
LLAYFCRRGVRH	0.7232 ± 0.0071
RRPTKGGPPTLC	0.67 ± 0.032
MGGTGRGGRREI	0.667 ± 0.04
ATVYFCKVCGGR	0.687 ± 0.019
VDYARECALIGG	0.782 ± 0.11
LLPVLGFPLPFD	0.75 ± 0.065
ADGGVVLKVMEG	0.636 ± 0.077
GVPPTPTHPCTC	0.758 ± 0.072
IRPSQASSLRKT	0.634 ± 0.066
PTTFLSPPSPPS	0.71 ± 0.011

Sequence	protein stability index
PVSPPRLPRPPP	0.615 ± 0.017
LGSASRQLARPR	0.66 ± 0.12
GVDGLLRVYVME	0.674 ± 0.029
VPPASLVCLTSP	0.667 ± 0.0015
FRSRFGPCLRSV	0.649 ± 0.027
SRSGFWCYLLFL	0.553 ± 0.039
FRNESLVAGKSG	0.717 ± 0.076
PATPPFSLPPPH	0.669 ± 0.025
PPFSSRTRPPLC	0.67 ± 0.023
PRSPPPPPPLPP	0.626 ± 0.019
LGRLFPTSLPPR	0.739 ± 0.17
ANKNNIQRTISL	0.756 ± 0.038
TEPHSDQPKKNA	0.701 ± 0.14
CLTYPSFSLSSS	0.635 ± 0.063
SRTLPPPSPGLH	0.714 ± 0.013
ASKKIDIEKRGT	0.705 ± 0.14
CFKPLRLEPGCC	0.665 ± 0.094
QKKKKKSKQRGP	0.743 ± 0.034
GIKAIEKGDIHL	0.699 ± 0.021
IYHCRKSYKTRQ	0.7205 ± 0.0042
HRREEDQRPYSR	0.768 ± 0.021
VLRGVNGLRCRS	0.6863 ± 0.0046
WGRLRFFDCSGF	0.605 ± 0.014
QSGQSELRVVPP	0.72 ± 0.021
VGGEWGLGVRPR	0.703 ± 0.014
SLPPHHLLISNA	0.645 ± 0.028

Sequence	protein stability index
STHSRLCATVPP	0.591 ± 0.027
FSRVRNVLGLGG	0.73 ± 0.12
PPARHSPIFPVH	0.786 ± 0.022
LRVSPVALPSSW	0.81 ± 0.13
LLRVLPPPPLPL	0.712 ± 0.11
SPGPRLSTRLRQ	0.701 ± 0.077
SRFRSGVAALPS	0.644 ± 0.033
CGGGGVVGAGWG	0.728 ± 0.061
AGGARADKQGGG	0.636 ± 0.071
TLRRPMQVPLGH	0.633 ± 0.04
EDVEGVWVKGCE	0.725 ± 0.17
GRGRVGGGGVAV	0.682 ± 0.042
QWGGEGWILGGV	0.698 ± 0.031
SSPIIAGFPQQK	0.676 ± 0.016
AHPPSPPPTRRP	0.676 ± 0.0079
VIPLSARGEEGD	0.7001 ± 0.0035
QQLILCLFSPFP	0.655 ± 0.015
PAIPPPPTAAPT	0.678 ± 0.087
VLRLGFYNINKL	0.676 ± 0.075
VFCPSPGPLAFA	0.673 ± 0.072
HRQTAKLKRIVI	0.651 ± 0.093
VPRPPPHPPGDV	0.622 ± 0.016
FFDFCACICTFF	0.655 ± 0.045
